Broadly, the Kd is the concentration at which binding is half-saturated.

B1: Parental 1F3.5 (CD3-binding bispecific TCE of Table 30) (bispecific antibody, V domains shown)
VH: EVQLVESGGGLVQPGGSLRLSCAASGFTFNTYAMNWVRQAPGKGLEWVARIRSKYNNYATYYADSVKDRFTISRDDSKNTLYLQMNSLRAEDTAVYYCVRHGNFGNSYVSWFAYWGQGTMVTVSS
VL: QAVVTQEPSLTVSPGGTVTLTCRSSTGAVTTSNYANWVQQKPGQAPRGLIGGTNKRAPGTPARFSGSLLGGKAALTLSGVQPEDEAEYYCALWYSNLWVFGGGTKLTVLG
notes: also called IF3.5
B2: 1F3.5 VL1.00-VH1.05 (CD3-binding bispecific TCE of Table 30) (bispecific antibody, V domains shown)
VH: EVQLVESGGGLVQPGGSLKLSCAASGFTFNTYAMNWVRQASGKGLEWVGRIRSKYNNYATYYADSVKGRFTISRDDSKNTAYLQMNSLKTEDTAVYYCVRHGNFGNAYVSFAYWGQGTMVTVSS
VL: QAVVTQEPSLTVSPGGTVTLTCRSSTGAVTTSNYANWVQQKPGQAPRGLIGGTNKRAPGTPARFSGSLLGGKAALTLSGVQPEDEAEYYCALWYSNLWVFGGGTKLTVLG
notes: CD3 Fab arm only; VL1.00 read as the parental 1F3.5 light chain
B3: 1F3.5 VL1.01-VH1.00 (CD3-binding bispecific TCE of Table 30) (bispecific antibody, V domains shown)
VH: EVQLVESGGGLVQPGGSLRLSCAASGFTFNTYAMNWVRQAPGKGLEWVARIRSKYNNYATYYADSVKDRFTISRDDSKNTLYLQMNSLRAEDTAVYYCVRHGNFGNSYVSWFAYWGQGTMVTVSS
VL: QTVVTQEPSLTVSPGGTVTLTCASSTGAVTTSNYANWVQQKPGQAPRALIGGTNKRAPGTPARFSGSLLGGKAALTLSGVQPEDEAEYYCALWYSNLWVFGGGTKLTVLG
notes: CD3 Fab arm only; VH1.00 read as the parental 1F3.5 heavy chain
B4: 1F3.5 VL1.01-VH1.05 (CD3-binding bispecific TCE of Table 30) (bispecific antibody, V domains shown)
VH: EVQLVESGGGLVQPGGSLKLSCAASGFTFNTYAMNWVRQASGKGLEWVGRIRSKYNNYATYYADSVKGRFTISRDDSKNTAYLQMNSLKTEDTAVYYCVRHGNFGNAYVSFAYWGQGTMVTVSS
VL: QTVVTQEPSLTVSPGGTVTLTCASSTGAVTTSNYANWVQQKPGQAPRALIGGTNKRAPGTPARFSGSLLGGKAALTLSGVQPEDEAEYYCALWYSNLWVFGGGTKLTVLG
notes: CD3 Fab arm only
B5: 1F3.5 VL1.00-VH1.04 (CD3-binding bispecific TCE of Table 30) (bispecific antibody, V domains shown)
VH: EVQLVESGGGLVQPGGSLKLSCAASGFTFNTYAMNWVRQASGKGLEWVGRIRSKYNNYATYYADSVKGRFTISRDDSKNTLYLQMNSLKTEDTAVYYCVRHGNFGESYVSWFAYWGQGTMVTVSS
VL: QAVVTQEPSLTVSPGGTVTLTCRSSTGAVTTSNYANWVQQKPGQAPRGLIGGTNKRAPGTPARFSGSLLGGKAALTLSGVQPEDEAEYYCALWYSNLWVFGGGTKLTVLG
notes: as for B2
B6: 1F3.5 VL1.01-VH1.01 (low) (CD3-binding bispecific TCE of Table 30) (bispecific antibody, V domains shown)
VH: EVQLVESGGGLVQPGGSLKLSCAASGFTFNTYAMNWVRQASGKGLEWVGRIRSKYNNYATYYADSVKGRFTISRDDSKNTLYLQMNSLKTEDTAVYYCVRHGNFGNSYVSWFAYWGQGTMVTVSS
VL: QTVVTQEPSLTVSPGGTVTLTCASSTGAVTTSNYANWVQQKPGQAPRALIGGTNKRAPGTPARFSGSLLGGKAALTLSGVQPEDEAEYYCALWYSNLWVFGGGTKLTVLG
notes: CD3 Fab arm only; also called 1F3.5-VH1.01-VL1.01
B7: 1F3.5 VL1.00-VH1.02 (CD3-binding bispecific TCE of Table 30) (bispecific antibody, V domains shown)
VH: EVQLVESGGGLVQPGGSLKLSCAASGFTFNTYAMNWVRQASGKGLEWVGRIRSKYNNYATYYADSVKGRFTISRDDSKNTAYLQMNSLKTEDTAVYYCVRHGNFGNSYVSWFAYWGQGTMVTVSS
VL: QAVVTQEPSLTVSPGGTVTLTCRSSTGAVTTSNYANWVQQKPGQAPRGLIGGTNKRAPGTPARFSGSLLGGKAALTLSGVQPEDEAEYYCALWYSNLWVFGGGTKLTVLG
notes: as for B2
B8: 1F3.5 VL1.01-VH1.03 (CD3-binding bispecific TCE of Table 30) (bispecific antibody, V domains shown)
VH: EVQLVESGGGLVQPGGSLKLSCAASGFTFNTYAMNWVRQASGKGLEWVGRIRSKYNNYATYYADSVKGRFTISRDDSKNTLYLQMNSLKTEDTAVYYCVRHGNFGASYVSWFAYWGQGTMVTVSS
VL: QTVVTQEPSLTVSPGGTVTLTCASSTGAVTTSNYANWVQQKPGQAPRALIGGTNKRAPGTPARFSGSLLGGKAALTLSGVQPEDEAEYYCALWYSNLWVFGGGTKLTVLG
notes: CD3 Fab arm only
B9: 1F3.5 VL1.01-VH1.02 (CD3-binding bispecific TCE of Table 30) (bispecific antibody, V domains shown)
VH: EVQLVESGGGLVQPGGSLKLSCAASGFTFNTYAMNWVRQASGKGLEWVGRIRSKYNNYATYYADSVKGRFTISRDDSKNTAYLQMNSLKTEDTAVYYCVRHGNFGNSYVSWFAYWGQGTMVTVSS
VL: QTVVTQEPSLTVSPGGTVTLTCASSTGAVTTSNYANWVQQKPGQAPRALIGGTNKRAPGTPARFSGSLLGGKAALTLSGVQPEDEAEYYCALWYSNLWVFGGGTKLTVLG
notes: CD3 Fab arm only
B10: 1F3.5 VL1.00-VH1.03 (high) (CD3-binding bispecific TCE of Table 30) (bispecific antibody, V domains shown)
VH: EVQLVESGGGLVQPGGSLKLSCAASGFTFNTYAMNWVRQASGKGLEWVGRIRSKYNNYATYYADSVKGRFTISRDDSKNTLYLQMNSLKTEDTAVYYCVRHGNFGASYVSWFAYWGQGTMVTVSS
VL: QAVVTQEPSLTVSPGGTVTLTCRSSTGAVTTSNYANWVQQKPGQAPRGLIGGTNKRAPGTPARFSGSLLGGKAALTLSGVQPEDEAEYYCALWYSNLWVFGGGTKLTVLG
notes: CD3 Fab arm only; VL1.00 read as the parental 1F3.5 light chain; also called 1F3.5-VH1.03
B11: 1F3.5 VL1.01-VH1.04 (CD3-binding bispecific TCE of Table 30) (bispecific antibody, V domains shown)
VH: EVQLVESGGGLVQPGGSLKLSCAASGFTFNTYAMNWVRQASGKGLEWVGRIRSKYNNYATYYADSVKGRFTISRDDSKNTLYLQMNSLKTEDTAVYYCVRHGNFGESYVSWFAYWGQGTMVTVSS
VL: QTVVTQEPSLTVSPGGTVTLTCASSTGAVTTSNYANWVQQKPGQAPRALIGGTNKRAPGTPARFSGSLLGGKAALTLSGVQPEDEAEYYCALWYSNLWVFGGGTKLTVLG
notes: CD3 Fab arm only
B12: 1F3.5 VL1.00-VH1.01 (CD3-binding bispecific TCE of Table 30) (bispecific antibody, V domains shown)
VH: EVQLVESGGGLVQPGGSLKLSCAASGFTFNTYAMNWVRQASGKGLEWVGRIRSKYNNYATYYADSVKGRFTISRDDSKNTLYLQMNSLKTEDTAVYYCVRHGNFGNSYVSWFAYWGQGTMVTVSS
VL: QAVVTQEPSLTVSPGGTVTLTCRSSTGAVTTSNYANWVQQKPGQAPRGLIGGTNKRAPGTPARFSGSLLGGKAALTLSGVQPEDEAEYYCALWYSNLWVFGGGTKLTVLG
notes: CD3 Fab arm only
B13: 82H02 (bispecific TCE of Table 29) (bispecific antibody, V domains shown)
VH: EVQLLESGGGLVQPGGSLRLSCAASGFTFTSYAMSWVRQAPGKGLEWVSTISGSGGGTYYTDSVKGRFTISRDNSKNTLYLQMNSLRAEDTAVYYCAQGSSIFDYWGQGTLVTVSS
VL: EIVLTQSPATLSLSPGERATLSCRASQSVSSYLAWYQQKPGQAPRLLIYDASNRATGIPARFSGSGSGTDFTLTISSLEPEDFAVYYCQQRSNWPPCTFGQGTRLEIK
B14: 82H02 VL1.06 (low) (bispecific TCE of Table 29) (bispecific antibody, V domains shown)
VH: EVQLLESGGGLVQPGGSLRLSCAASGFTFTSYAMSWVRQAPGKGLEWVSTISGSGGGTYYTDSVKGRFTISRDNSKNTLYLQMNSLRAEDTAVYYCAQGSSIFDYWGQGTLVTVSS
VL: EIVLTQSPATLSLSPGERATLSCRASQSVSSYLAWYQQKPGQAPRLLIYDASNRATGIPARFSGSGSGTDFTLTISSLEPEDFAVYYCQQRSNWPPFTFGQGTRLEIK
notes: also called 82H02 v1.06
B15: 82H02 VL1.07 (high) (bispecific TCE of Table 29) (bispecific antibody, V domains shown)
VH: EVQLLESGGGLVQPGGSLRLSCAASGFTFTSYAMSWVRQAPGKGLEWVSTISGSGGGTYYTDSVKGRFTISRDNSKNTLYLQMNSLRAEDTAVYYCAQGSSIFDYWGQGTLVTVSS
VL: EIVLTQSPATLSLSPGERATLSCRASQSVSSYLAWYQQKPGQAPRLLIYDASNRATGIPARFSGSGSGTDFTLTISSLEPEDFAVYYCQQRSNWPPSTFGQGTRLEIK
notes: also called 82H02 v1.07
B16: 82H02 VL1.08 (bispecific TCE of Table 29) (bispecific antibody, V domains shown)
VH: EVQLLESGGGLVQPGGSLRLSCAASGFTFTSYAMSWVRQAPGKGLEWVSTISGSGGGTYYTDSVKGRFTISRDNSKNTLYLQMNSLRAEDTAVYYCAQGSSIFDYWGQGTLVTVSS
VL: EIVLTQSPATLSLSPGERATLSCRASQSVSSYLAWYQQKPGQAPRLLIYDASNRATGIPARFSGSGSGTDFTLTISSLEPEDFAVYYCQQRSNWPPYTFGQGTRLEIK
notes: also called 82H02 v1.08
B17: 82H02 VL1.04 (bispecific TCE of Table 29) (bispecific antibody, V domains shown)
VH: EVQLLESGGGLVQPGGSLRLSCAASGFTFTSYAMSWVRQAPGKGLEWVSTISGSGGGTYYTDSVKGRFTISRDNSKNTLYLQMNSLRAEDTAVYYCAQGSSIFDYWGQGTLVTVSS
VL: not shown
notes: also called 82H02 v1.04
B18: 82H02 VL1.02 (bispecific TCE of Table 29) (bispecific antibody, V domains shown)
VH: EVQLLESGGGLVQPGGSLRLSCAASGFTFTSYAMSWVRQAPGKGLEWVSTISGSGGGTYYTDSVKGRFTISRDNSKNTLYLQMNSLRAEDTAVYYCAQGSSIFDYWGQGTLVTVSS
VL: EIVLTQSPATLSLSPGERATLSCRASQSVSSYLAWYQQKPGQAPRLLIYDASNRATGIPARFSGSGSGTDFTLTISSLEPEDFAVYYCQQRSNWPPRTFGQGTRLEIK
notes: also called 82H02 v1.02
B19: 82H02 VL1.05 (bispecific TCE of Table 29) (bispecific antibody, V domains shown)
VH: EVQLLESGGGLVQPGGSLRLSCAASGFTFTSYAMSWVRQAPGKGLEWVSTISGSGGGTYYTDSVKGRFTISRDNSKNTLYLQMNSLRAEDTAVYYCAQGSSIFDYWGQGTLVTVSS
VL: EIVLTQSPATLSLSPGERATLSCRASQSVSSYLAWYQQKPGQAPRLLIYDASNRATGIPARFSGSGSGTDFTLTISSLEPEDFAVYYCQQRSNWPPLTFGQGTRLEIK
notes: also called 82H02 v1.05
B20: 82H02 VL1.03 (bispecific TCE of Table 29) (bispecific antibody, V domains shown)
VH: EVQLLESGGGLVQPGGSLRLSCAASGFTFTSYAMSWVRQAPGKGLEWVSTISGSGGGTYYTDSVKGRFTISRDNSKNTLYLQMNSLRAEDTAVYYCAQGSSIFDYWGQGTLVTVSS
VL: EIVLTQSPATLSLSPGERATLSCRASQSVSSYLAWYQQKPGQAPRLLIYDASNRATGIPARFSGSGSGTDFTLTISSLEPEDFAVYYCQQRSNWPPQTFGQGTRLEIK
notes: also called 82H02 v1.03
B21: 69A02 (bispecific TCE of Table 29) (bispecific antibody, V domains shown)
VH: QVTLKESGPTLVKPTQTLTLTCSFSGFSITTSGVSVGWIRQPPGKALEWLALIYWDDDKRYSPSLKSRLTITRDTSKNQVVLTMTNMDPVDTATYYCAHAPRYTPGGYFDYWGQGTLVTVSS
VL: ETTLTQSPATLSVSPGETATLSCRASQSVSSNLAWYQQKPGQAPRLLIYGASTRATGIPATFSGSGSGTEFTLTISSLQSEDFAIYYCQQYKNWPPAFGGGTELEIK

In one experiment the target is T1, recombinant human CD3ε/δ heterodimer SEED Fc fusion protein (human, UniProt P07766 23-126; P04234 22-105).
T1 construct: not shown: SEED Fc arm, not specified
T1 sequence (P07766 23-126, stated change not applied, chain 1 of 2): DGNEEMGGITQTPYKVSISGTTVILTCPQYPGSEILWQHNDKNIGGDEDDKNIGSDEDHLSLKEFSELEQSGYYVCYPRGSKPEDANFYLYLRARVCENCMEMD
T1 sequence (P04234 22-105, stated change not applied, chain 2 of 2): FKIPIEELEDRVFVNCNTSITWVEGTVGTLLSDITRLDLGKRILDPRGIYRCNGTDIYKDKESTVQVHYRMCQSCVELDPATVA
Briefly: biolayer interferometry, TCE immobilized. An excerpt: (§1) This example describes biolayer interferometry experiments that were used to determine the binding affinities of bispecific TCEs and sequence optimized variants of the present disclosure.
Turning to B1, the equilibrium dissociation constant (Kd) was determined as 0.0027 µM.
Same read-out and setting: next, B2: 0.0082 µM; B3: 0.0623 µM.
On the same count and under the same terms, next, B4: 0.0592 µM; B5: 0.0065 µM; B6: 0.042 µM.
Still for that read-out and setting: next, B7: 0.0055 µM; B8: 0.0848 µM.
B9: the Kd is 0.0471 µM.
On the same count and under the same terms, for B10 the value was 0.0046 µM; for B11, 0.0742 µM.
The same measure, in the same setting: for B12 the value was 0.0029 µM.

In a further experiment the target is T2, recombinant human ROR1 extracellular domain protein (human, UniProt Q01973 30-406).
T2 construct: also called Human/Cyno ROR1
Briefly: biolayer interferometry, TCE immobilized.
Description: as §1
For orientation: Biolayer interferometry detects binding as a change in optical thickness at a sensor tip.
Turning to B13, the Kd was 0.0054 µM.
The same measure, in the same setting: next, B14: 0.099 µM; B15: 0.0042 µM.
On the same count and under the same terms, next, B16: 0.166 µM.
Still for that read-out and setting: next, B17: 0.0507 µM; B18: 0.122 µM.
For B19, the dissociation constant (Kd) came to 0.154 µM.
Still for that read-out and setting: for B20 the value was 0.475 µM.
On the same count and under the same terms, for B21 the value was 0.0035 µM.
